For experiment [1], the system named is T1, CCT.
T1 construct: Take 20S mouse testis sucrose gradient fractions enriched in CCT; from tissue; host or cells: mouse testis, 20S sucrose gradient fractions
Description: Interaction of soluble biotinylated peptides with CCT (native PAGE, streptavidin/Neutravidin-HRP blot). Type of experiment: binding, mouse.
Description: Mouse testis CCT was incubated singly or in combination with peptide 8 (lanes 1 and 2; SEQ ID NO: 18), peptide 8.1 (lane 3; SEQ ID NO: 19), peptide 8.2 (lane 4, SEQ ID NO: 20), peptide 8.3 (lane 5; SEQ ID NO: 21), peptide 8.4 (lane 6; SEQ ID NO: 22), peptide 8.5 (lane 7; SEQ ID NO: 23), or peptide 8.6 (lane 8; SEQ ID NO: 24) as listed in FIG. 11A and 11C. In all lanes, CCT was incubated with peptide on ice for one hour. Samples were electrophoresed on 6% native gels, transferred to nitrocellulose membrane and incubated with Neutravidin-HRP (Pierce) at 2 μg per ml to reveal the distribution of biotinylated peptides. […] The sequences in FIG. 11B (lane 3, residues 5 to 9 of SEQ ID NO: 19; lane 4, residues 5 to 9 of SEQ ID NO: 20; lane 5, residues 5 to 9 of SEQ ID NO: 21; lane 6, residues 5 to 9 of SEQ ID NO: 22; lane 7, residues 5 to 9 of SEQ ID NO: 23; lane 8, SEQ ID NO: 122) are the core sequences of the mutant Actin Site I sequences present in the peptides listed in FIGS. 11A and 11C.
The gel was western blotted and probed with streptavidin-HRP conjugate to determine the position of the biotinylated peptides (FIG. 11).
CCT and peptide corresponding to β-Actin Site I (FIG. 10, peptide 8) were incubated together and the reactions were then electrophoresed on native PAGE gels, western blotted and probed with streptavidin-Horse Radish Peroxidase (HRP). […]

Another experiment has as its target T2, mouse CCTγ subunit (mouse, UniProt P80318 1-545).
T2 construct: Endogenous subunit in mouse testis sucrose fractions
T2 sequence (looked up): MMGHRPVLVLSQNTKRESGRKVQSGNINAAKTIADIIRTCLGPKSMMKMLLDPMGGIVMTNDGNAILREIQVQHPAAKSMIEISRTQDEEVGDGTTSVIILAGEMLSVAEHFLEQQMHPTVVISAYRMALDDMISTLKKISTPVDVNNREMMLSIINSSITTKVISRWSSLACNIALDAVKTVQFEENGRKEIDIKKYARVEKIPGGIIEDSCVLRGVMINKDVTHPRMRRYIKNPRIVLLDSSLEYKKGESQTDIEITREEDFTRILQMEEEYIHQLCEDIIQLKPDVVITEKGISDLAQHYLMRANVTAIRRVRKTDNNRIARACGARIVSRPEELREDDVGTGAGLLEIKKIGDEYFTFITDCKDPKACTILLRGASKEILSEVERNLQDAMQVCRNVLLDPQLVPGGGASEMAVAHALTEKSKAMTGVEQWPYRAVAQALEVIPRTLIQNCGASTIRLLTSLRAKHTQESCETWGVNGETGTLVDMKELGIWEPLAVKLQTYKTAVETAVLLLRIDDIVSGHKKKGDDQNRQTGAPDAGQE
Description: superimposable bands, 6% non-denaturing PAGE Western blot of sucrose fractions 13 and 14; footnote: not very clear in mouse testis but substantiated in Human 293 cells.

Experiment [2] concerns the target T3, mouse CCTα subunit (wildtype) (mouse, UniProt P11983 1-556).
T3 construct: in the 23C experiment translated in vitro and incorporated into rabbit CCT; also called CCTa; CCTA
Description: superimposable bands, 6% non-denaturing PAGE Western blot of mouse testis sucrose fractions 13 and 14, subunit-specific antibodies. A general note: Immunoblotting shows a protein as a band on a membrane.
Description: (§1) Sucrose gradient fractions 13 and 14 were resolved in a 6% non-denaturing polyacrylamide gel followed by Western blotting. The CCT subunit—subunit association patterns were determined by probing the blot sequentially with specific antibodies recognising the eight CCT subunits to locate superimposible bands.

Experiment [3] has as its target T4, human CCTγ subunit (human 293 cells) (human, UniProt P49368 1-545).
T4 sequence (looked up): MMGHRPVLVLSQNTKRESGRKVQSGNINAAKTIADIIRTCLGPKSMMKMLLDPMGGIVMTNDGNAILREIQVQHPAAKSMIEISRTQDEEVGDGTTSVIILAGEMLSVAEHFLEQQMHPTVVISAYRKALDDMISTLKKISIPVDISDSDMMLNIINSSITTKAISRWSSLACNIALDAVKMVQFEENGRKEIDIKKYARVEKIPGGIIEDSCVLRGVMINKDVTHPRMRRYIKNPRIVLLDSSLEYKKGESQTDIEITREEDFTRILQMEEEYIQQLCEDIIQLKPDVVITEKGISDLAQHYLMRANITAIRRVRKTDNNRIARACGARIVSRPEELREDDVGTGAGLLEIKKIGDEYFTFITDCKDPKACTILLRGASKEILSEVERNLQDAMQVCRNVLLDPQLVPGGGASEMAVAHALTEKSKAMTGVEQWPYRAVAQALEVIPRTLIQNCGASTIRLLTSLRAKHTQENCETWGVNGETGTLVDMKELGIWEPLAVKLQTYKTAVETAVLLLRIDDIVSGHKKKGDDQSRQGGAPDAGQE
The experiment is described as follows: superimposable bands, non-denaturing PAGE Western blot of sucrose fractions 13 and 14 of human 293 cells.

Experiment [4] relates to CCT. The experiment is described as follows: In vitro translation in rabbit reticulocyte lysate, interaction with CCT on native PAGE. Type of experiment: binding. The conditions noted are these: kinetics different from folding substrates actin or tubulins. On the procedure:
Time courses of interactions of cyclins with CCT were analysed on 6% native polyacrylamide gels (Liou & Willison,EMBO J. 16, 4311–4316, 1997). At the indicated times, 5 μl aliquots of the lysate reactions were added to 7 μl of […] EDTA (ph 8.0) and 4 μl of 4× gel loading buffer and placed on ice. The lanes 1–6 show CCT a at t=0, 5, 10, 20, 30, 60 minutes. Lanes 7–12 show pBSK CY1 1 (mouse D1) at t=0, 5, 10, 20, 30, 60 minutes.
Upon in vitro translation of actin mRNA in rabbit reticulocyte lysate, several truncated forms of ^35S-actin are captured by and accumulate on CCT. This is also the case for α-tubulin (Liou, K. F., et al, Biological Chem. Hoppe-Seler 379, 311–319, 1998). […] Thus, the actin is fragments are not ribosome released nascent chains, but are the consequence of initiation of translation at internal methionine residues in actin, and a comparison of the experimentally determined molecular weights of the truncated forms with the sequential occurrence of the methionines in mouse β-actin supports this interpretation. […] Therefore, no fragments smaller than 29 kDa are produced by internal initiation in the IVT reaction.
The present inventors made fusion proteins which linked β-Actin Site I (residues 31–70) or Site II residues 178–262; 6 of the peptides (Table 2) are located in this segment) containing fragments to the C-terminus of Ha-Ras (residues 1–166). […]

T3 sequence (P11983 whole entry): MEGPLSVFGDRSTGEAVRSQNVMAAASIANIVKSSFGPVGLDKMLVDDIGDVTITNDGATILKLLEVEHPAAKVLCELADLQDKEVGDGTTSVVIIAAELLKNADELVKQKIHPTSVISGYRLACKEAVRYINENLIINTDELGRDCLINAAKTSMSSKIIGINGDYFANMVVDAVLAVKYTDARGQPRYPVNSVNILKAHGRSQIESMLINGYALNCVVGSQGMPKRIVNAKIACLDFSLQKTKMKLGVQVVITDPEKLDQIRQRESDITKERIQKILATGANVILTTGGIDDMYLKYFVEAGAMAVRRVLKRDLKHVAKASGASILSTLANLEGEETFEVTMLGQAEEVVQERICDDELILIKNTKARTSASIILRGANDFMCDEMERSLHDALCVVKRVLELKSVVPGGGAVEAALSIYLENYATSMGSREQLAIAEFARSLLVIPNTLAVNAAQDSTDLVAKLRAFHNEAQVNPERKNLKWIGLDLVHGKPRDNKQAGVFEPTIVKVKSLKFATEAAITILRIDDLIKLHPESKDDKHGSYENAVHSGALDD
Description for mouse CCTγ subunit: as §1

Consider “biotin-SGSG-AAAAAQGVMVGMGQK [peptide 8.6]”, for which, in the experiment with CCT [1] (free solution assay, derivatives of peptide 8), the “effect of alanine substitution in GRPRH core sequence on binding to CCT” value is on record as “abrogation of binding to CCT”.
Take biotin-SGSG-GRPRHQGVMVGMGQK [peptide 8]: in the experiment on CCT [1] (biotinylated peptide, non denaturing gel), the “binding of peptide to CCT in free solution (co-migration with CCT complex)” value was “co-migrate with the CCT complex”.

B1: mouse CCTβ subunit (other, UniProt P80314 2-535, looked up)
chain: ASLSLAPVNIFKAGADEERAETARLSSFIGAIAIGDLVKSTLGPKGMDKILLSSGRDAALMVTNDGATILKNIGVDNPAAKVLVDMSRVQDDEVGDGTTSVTVLAAELLREAESLIAKKIHPQTIISGWREATKAAREALLSSAVDHGSDEARFWQDLMNIAGTTLSSKLLTHHKDHFTKLAVEAVLRLKGSGNLEAIHVIKKLGGSLADSYLDEGFLLDKKIGVNQPKRIENAKILIANTGMDTDKIKIFGSRVRVDSTAKVAEIEHAEKEKMKEKVERILKHGINCFINRQLIYNYPEQLFGAAGVMAIEHADFAGVERLALVTGGEIASTFDHPELVKLGSCKLIEEVMIGEDKLIHFSGVALGEACTIVLRGATQQILDEAERSLHDALCVLAQTVKDPRTVYGGGCSEMLMAHAVTQLANRTPGKEAVAMESFAKALRMLPTIIADNAGYDSADLVAQLRAAHSEGHITAGLDMKEGTIGDMAVLGITESFQVKRQVLLSAAEAAEVILRVDNIIKAAPRKRVPDHHPC
notes: Endogenous subunit in mouse testis sucrose fractions
As to B1, in the experiment with mouse CCTγ subunit, the binding result is given as “binds”.

B2: mouse CCTε subunit (other, UniProt P80316 2-541, looked up)
chain: ASVGTLAFDEYGRPFLIIKDQDRKSRLMGLEALKSHIMAAKAVANTMRTSLGPNGLDKMMVDKDGDVTITNDGATILSMMDVDHQIAKLMVELSKSQDDEIGDGTTGVVVLAGALLEEAEQLLDRGIHPIRIADGYEQAARIAIQHLDKISDKVLVDINNPEPLIQTAKTTLGSKVINSCHRQMAEIAVNAVLTVADMERRDVDFELIKVEGKVGGRLEDTKLIKGVIVDKDFSHPQMPKKVVDAKIAILTCPFEPPKPKTKHKLDVMSVEDYKALQKYEKEKFEEMIKQIKETGANLAICQWGFDDEANHLLLQNGLPAVRWVGGPEIELIAIATGGRIVPRFSELTSEKLGFAGVVQEISFGTTKDKMLVIEKCKNSRAVTIFIRGGNKMIIEEAKRSLHDALCVIRNLIRDNRVVYGGGAAEISCALAVSQEADKCPTLEQYAMRAFADALEVIPMALSENSGMNPIQTMTEVRARQVKESNPALGIDCLHKGSNDMQYQHVIETLIGKKQQISLATQMVRMILKIDDIRKPGESEE
notes: as for B1
Take B2: the binding result in experiment [2] was “binds”.

B3: human CCTβ subunit (human 293 cells) (other, UniProt P78371 2-535, looked up)
chain: ASLSLAPVNIFKAGADEERAETARLTSFIGAIAIGDLVKSTLGPKGMDKILLSSGRDASLMVTNDGATILKNIGVDNPAAKVLVDMSRVQDDEVGDGTTSVTVLAAELLREAESLIAKKIHPQTIIAGWREATKAAREALLSSAVDHGSDEVKFRQDLMNIAGTTLSSKLLTHHKDHFTKLAVEAVLRLKGSGNLEAIHIIKKLGGSLADSYLDEGFLLDKKIGVNQPKRIENAKILIANTGMDTDKIKIFGSRVRVDSTAKVAEIEHAEKEKMKEKVERILKHGINCFINRQLIYNYPEQLFGAAGVMAIEHADFAGVERLALVTGGEIASTFDHPELVKLGSCKLIEEVMIGEDKLIHFSGVALGEACTIVLRGATQQILDEAERSLHDALCVLAQTVKDSRTVYGGGCSEMLMAHAVTQLANRTPGKEAVAMESYAKALRMLPTIIADNAGYDSADLVAQLRAAHSEGNTTAGLDMREGTIGDMAILGITESFQVKRQVLLSAAEAAEVILRVDNIIKAAPRKRVPDHHPC
Take B3: in experiment [3], the binding result is “binds”.

B4: mouse CCTη subunit (other, UniProt P80313 1-544, looked up)
chain: MMPTPVILLKEGTDSSQGIPQLVSNISACQVIAEAVRTTLGPRGMDKLIVDGRGKATISNDGATILKLLDVVHPAAKTLVDIAKSQDAEVGDGTTSVTLLAAEFLKQVKPYVEEGLHPQIIIRAFRTATQLAVNKIKEIAVTVKKQDKVEQRKMLEKCAMTALSSKLISQQKVFFAKMVVDAVMMLDELLQLKMIGIKKVQGGALEESQLVAGVAFKKTFSYAGFEMQPKKYKNPKIALLNVELELKAEKDNAEIRVHTVEDYQAIVDAEWNILYDKLEKIHQSGAKVILSKLPIGDVATQYFADRDMFCAGRVPEEDLKRTMMACGGSIQTSVNALVPDVLGHCQVFEETQIGGERYNFFTGCPKAKTCTIILRGGAEQFMEETERSLHDAIMIVRRAIKNDSVVAGGGAIEMELSKYLRDYSRTIPGKQQLLIGAYAKALEIIPRQLCDNAGFDATNILNKLRARHAQGGMWYGVDINNENIADNFQAFVWEPAMVRINALTAASEAACLIVSVDETIKNPRSTVDPPAPSAGRGRGQARFH
notes: as for B1
As to B4, the binding result in experiment [2] is reported as “binds”.

B5: Cyclin D1: mouse cyclin D1 translated in rabbit reticulocyte lysate (protein)
chain: MEHQLLCCEVETIRRAYPDTNLLNDRVLRAMLKTEETCAPSVSYFKCVQKEIVPSMRKIVATWMLEVCEEQKCEEEVFPLAMNYLDRFLSLEPLKKSRLQLLGATCMFVASKMKETIPLTAEKLCIYTDNSIRPEELLQMELLLVNKLKWNLAAMTPHDFIEHFLSKMPEADENKQTIRKHAQTFVALCATDVKFISNPPSMVAAGSVVAAMQGLNLGSPNNFLSCYRTTHFLSRVIKCDPDCLRACQEQIEALLESSLRQAQQNVDPKATEEEGEVEEEAGLACTPTDVRDVDI
For the molecule B5, the “binding to CCT (binding partner)” value in the experiment with CCT [4] is “specific binding partners for CCT”.

B6: Cyclin D2: cyclin D2, CCT binding partner (protein, UniProt P30279 1-289, looked up)
G1/S-specific cyclin-D2: MELLCHEVDPVRRAVRDRNLLRDDRVLQNLLTIEERYLPQCSYFKCVQKDIQPYMRRMVATWMLEVCEEQKCEEEVFPLAMNYLDRFLAGVPTPKSHLQLLGAVCMFLASKLKETSPLTAEKLCIYTDNSIKPQELLEWELVVLGKLKWNLAAVTPHDFIEHILRKLPQQREKLSLIRKHAQTFIALCATDFKFAMYPPSMIATGSVGAAICGLQQDEEVSSLTCDALTELLAKITNTDVDCLKACQEQIEAVLLNSLQQYRQDQRDGSKSEDELDQASTPTDVRDIDL
For B6, in the experiment on CCT [4], the “binding to CCT (binding partner)” value is “specific binding partners for CCT”.

These data come from patent US7018791B1, “Binding complexes” (Institute of Cancer Research: Royal Cancer Hospital, priority 1997, dated 2006).
